Values belong to the molecule of their own block, whether it stands above or below them.
Experiments:
Experiment in all cases: AUC; sedimentation velocity, 4°C, 40,000 rpm, 50 mM Tris pH 7.4, absorbance at 280 nm, c(s,ff0) distributions by SEDFIT corrected to 20,w; monomer, dimer and higher oligomers
[1] = biological target: cysteine-free rat insulin degrading enzyme (all twelve cysteines converted to serines) (rat) (UniProt P35559)
[2] = biological target: rat insulin degrading enzyme C904S (rat) (UniProt P35559)
[3] = biological target: the molecule itself

fold decrease in dimer content against wild type IDE [1]: 2 fold
Molecule: cysteine-free rat insulin degrading enzyme (all twelve cysteines converted to serines) (from UniProt P35559 1-1019)

stoichiometry N [2]: 2
Molecule: rat insulin degrading enzyme C904S (from UniProt P35559 1-1019)

B1: rat insulin degrading enzyme (IDE), wild type (enzyme, UniProt P35559 1-1019, looked up)
chain: MNNPAIQRIEDHIVKSPEDKREYRGLELANGIKVLLISDPTTDKSSAALDVHIGSLSDPPNIPGLSHFCEHMLFLGTKKYPKENEYSQFLSEHAGSSNAFTSGEHTNYYFDVSHEHLEGALDRFAQFFLCPLFDASCKDREVNAVDSEHEKNVMNDAWRLFQLEKATGNPKHPFSKFGTGNKYTLETRPNQEGIDVREELLKFHSTYYSSNLMAICVLGRESLDDLTNLVVKLFSEVENKNVPLPEFPEHPFQEEHLKQLYKIVPIKDIRNLYVTFPIPDLQQYYKSNPGHYLGHLIGHEGPGSLLSELKSKGWVNTLVGGQKEGARGFMFFIINVDLTEEGLLHVEDIILHMFQYIQKLRAEGPQEWVFQECKDLNAVAFRFKDKERPRGYTSKIAGKLHYYPLNGVLTAEYLLEEFRPDLIDMVLDKLRPENVRVAIVSKSFEGKTDRTEQWYGTQYKQEAIPEDVIQKWQNADLNGKFKLPTKNEFIPTNFEILALEKDATPYPALIKDTAMSKLWFKQDDKFFLPKACLNFEFFSPFAYVDPLHCNMAYLYLELLKDSLNEYAYAAELAGLSYDLQNTIYGMYLSVKGYNDKQPILLKKITEKMATFEIDKKRFEIIKEAYMRSLNNFRAEQPHQHAMYYLRLLMTEVAWTKDELKEALDDVTLPRLKAFIPQLLSRLHIEALLHGNITKQAALGVMQMVEDTLIEHAHTKPLLPSQLVRYREVQLPDRGWFVYQRRNEVHNNCGIEIYYQTDMQSTSENMFLELFCQIISEPCFNTLRTKEQLGYIVFSGPRRANGIQGLRFIIQSEKPPHYLESRVEAFLITMEKAIEDMTEEAFQKHIQALAIRRLDKPKKLSAECAKYWGEIISQQYNYDRDNIEVAYLKTLSKDDIIKFYKEMLAVDAPRRHKVSVHVLAREMDSCPVVGEFPSQNDINLSEAPPLPQPEVIHNMTEFKRGLPLFPLVKPHINFMAAKL
notes: Insulin degrading enzyme, rat; EC 3.4.24.56; also called wild type IDE; native enzyme; source: Sf9 insect cells, purified (HIS-select Ni-NTA agarose)
stoichiometry N [3]: 2

Reference: article PMC3471918 (PLoS ONE, 2012)
